Results on two molecules are retold here after publication PMC6474325, “PPR Protein BFA2 Is Essential for the Accumulation of the atpH/F Transcript in Chloroplasts”.

Series [1] concerns the target T1, BFA2 (MBP-BFA2, mature) (Arabidopsis thaliana, UniProt O65567 62-904).
T1 sequence: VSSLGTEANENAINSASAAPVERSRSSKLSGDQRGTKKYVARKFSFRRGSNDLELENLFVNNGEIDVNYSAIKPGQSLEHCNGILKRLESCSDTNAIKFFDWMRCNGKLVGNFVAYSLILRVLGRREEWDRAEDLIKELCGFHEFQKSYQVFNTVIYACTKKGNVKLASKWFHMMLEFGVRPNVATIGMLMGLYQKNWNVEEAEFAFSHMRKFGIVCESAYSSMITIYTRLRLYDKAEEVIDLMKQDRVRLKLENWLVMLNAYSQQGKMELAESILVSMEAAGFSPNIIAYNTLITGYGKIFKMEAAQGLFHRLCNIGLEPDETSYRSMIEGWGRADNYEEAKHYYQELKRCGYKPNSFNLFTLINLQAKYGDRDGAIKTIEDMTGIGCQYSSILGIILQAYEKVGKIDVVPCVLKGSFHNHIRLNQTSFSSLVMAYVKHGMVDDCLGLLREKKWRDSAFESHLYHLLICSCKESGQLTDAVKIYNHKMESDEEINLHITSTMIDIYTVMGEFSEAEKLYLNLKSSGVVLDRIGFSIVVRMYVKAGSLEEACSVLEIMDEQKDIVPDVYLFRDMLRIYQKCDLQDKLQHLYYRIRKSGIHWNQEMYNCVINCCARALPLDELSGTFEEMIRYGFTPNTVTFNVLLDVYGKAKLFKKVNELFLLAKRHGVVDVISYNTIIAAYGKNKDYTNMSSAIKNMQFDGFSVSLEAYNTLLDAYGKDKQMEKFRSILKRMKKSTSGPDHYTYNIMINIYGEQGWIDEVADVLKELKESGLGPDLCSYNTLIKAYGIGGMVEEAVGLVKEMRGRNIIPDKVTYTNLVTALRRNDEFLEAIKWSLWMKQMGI
Nature of the series: competition; unlabeled ndhA RNA; 1000-fold excess does not affect complex with labeled atpF sRNA; 10 mM HEPES pH 7.5, 20 mM KCl, 2 mM MgCl2, 1 mM DTT, 5% glycerol, 1 ug yeast tRNA, 20 C, 30 min; 6% native PAGE with 2.5% glycerol. Conditions: protein: recombinant; tags: MBP (pMAL-c5x); label: none; single strand.

In series [2] the target is T1, BFA2 (MBP-BFA2, mature). Description: EMSA; 1 ug tRNA, 2 mM Mg2+; complex detected at protein 3x molar over RNA; 10 mM HEPES pH 7.5, 20 mM KCl, 2 mM MgCl2, 1 mM DTT, 5% glycerol, 1 ug yeast tRNA, 20 C, 30 min; 6% native PAGE with 2.5% glycerol. The conditions noted are these: protein: recombinant; tags: MBP (pMAL-c5x); label: 5'-biotin on probe; single strand. On the technique in general: A gel shift assay detects complexes by their altered migration in electrophoresis.

As to UUAUGACGAUACUCGGUAGCAUAGAUAUAA (ssRNA) [ndhA 5' end sRNA], the binding result in the series with BFA2 (MBP-BFA2, mature) [1] is “no binding”.
Take UAUAGGCAUUAUUUUUUUUUCU (ssRNA) [atpF sRNA (atpF-atpA intergenic)]: in the series with BFA2 (MBP-BFA2, mature) [2], the binding result is given as “binds”.
